This assay addresses T1, human CD64 (human, UniProt P12314 16-374).
T1 construct: also called hCD64; FcγRIA
Description: flow cytometry on CHO-S-hCD64 and THP-1 cells. For orientation: A flow cytometer gives signals particle by particle.

T1 sequence (P12314 16-374 limits assumed): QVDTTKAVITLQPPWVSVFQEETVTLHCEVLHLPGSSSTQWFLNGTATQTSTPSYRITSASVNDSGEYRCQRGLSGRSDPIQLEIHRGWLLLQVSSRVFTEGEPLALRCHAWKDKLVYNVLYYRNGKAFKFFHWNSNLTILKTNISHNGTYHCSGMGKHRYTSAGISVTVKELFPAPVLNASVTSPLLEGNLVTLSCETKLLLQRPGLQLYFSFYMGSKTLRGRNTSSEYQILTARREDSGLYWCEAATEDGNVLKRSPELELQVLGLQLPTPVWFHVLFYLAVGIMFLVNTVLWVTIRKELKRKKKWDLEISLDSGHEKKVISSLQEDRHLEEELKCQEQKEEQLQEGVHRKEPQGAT

B1: m22-AF647 antibody (antibody, human IgG4, V domains shown)
VH: QVQLVESGGGVVQPGRSLRLSCSSSGFIFSDNYMYWVRQAPGKGLEWVATISDGGSYTYYPDSVKGRFTISRDNSKNTLFLQMDSLRPEDTGVYFCARGYYRYEGAMDYWGQGTPVTVSS
VL: DIQLTQSPSSLSASVGDRVTITCKSSQSVLYSSNQKNYLAWYQQKPGKAPKLLIYWASTRESGVPSRFSGSGSGTDFTFTISSLQPEDIATYYCHQYLSSWTFGQGTKLEIK
modifications: Alexa Fluor 647 label on the antibody (sites not given)
notes: kappa) fluorescently labelled with Alexa Fluor 647
As for B1, the binding result is on record as “binds”.
